Test results: patent US20150104459A1

Columns and labels:
Settings in all cases: remark: other sources report otherwise
[1] = target: recombinant soluble homotrimeric HA of A/Japan/305/57 (H2N2) (Influenza A virus A/Japan/305/1957 (H2N2)); assay: HA microarray, BCC supernatant
[2] = target: recombinant soluble homotrimeric HA of A/Netherlands/219/03 (H7N7) (Influenza A virus A/Netherlands/219/03 (H7N7)); assay: HA microarray, BCC supernatant
[3] = target: recombinant soluble homotrimeric HA of A/Solomon Islands/3/06 (H1N1) (Influenza A virus A/Solomon Islands/3/2006 (H1N1)); assay: HA microarray, BCC supernatant
[4] = target: recombinant soluble homotrimeric HA of A/Wisconsin/67/05 (H3N2) (Influenza A virus A/Wisconsin/67/2005 (H3N2)); assay: HA microarray, BCC supernatant
[5] = target: recombinant soluble homotrimeric HA of A/chicken/Vietnam/NCVD-016/08 (H5N1) (Influenza A virus A/chicken/Vietnam/NCVD-016/2008 (H5N1)); assay: HA microarray, BCC supernatant
[6] = target: recombinant soluble homotrimeric HA of A/northern shoveler/California/HKWF115/2007 (H6N1) (Influenza A virus A/northern shoveler/California/HKWF115/2007 (H6N1)); assay: HA microarray, BCC supernatant
[7] = target: recombinant soluble homotrimeric HA of A/swine/Ontario/01911-2/99 (H4N6) (Influenza A virus A/Swine/Ontario/01911-2/99 (H4N6)); assay: HA microarray, BCC supernatant
[8] = target: recombinant soluble homotrimeric HA of A/Anhui/1/05 (H5N1) (Influenza A virus A/Anhui/1/2005 (H5N1)); assay: HA microarray, BCC supernatant
[9] = target: recombinant soluble homotrimeric HA of A/Hong Kong/2108/03 (H9N2) (Influenza A virus A/Hong Kong/2108/2003 (H9N2)); assay: HA microarray, BCC supernatant
[10] = target: recombinant soluble homotrimeric HA of A/Indonesia/5/05 (H5N1) (Influenza A virus A/Indonesia/5/2005 (H5N1)); assay: HA microarray, BCC supernatant
[11] = target: recombinant soluble homotrimeric HA of A/Vietnam/1203/04 (H5N1) (Influenza A virus A/Vietnam/1203/2004 (H5N1)); assay: HA microarray, BCC supernatant
[12] = target: recombinant soluble homotrimeric HA of A/duck/Yangzhou/02/2005 (H8N4) (Influenza A virus A/duck/Yangzhou/02/2005 (H8N4)); assay: HA microarray, BCC supernatant
[13] = target: recombinant soluble homotrimeric HA, A/Hong Kong/156/97 (H5N1) (influenza A virus A/Hong Kong/156/97 (H5N1)); assay: microarray, trimeric HA, transfection supernatant
[14] = target: recombinant soluble homotrimeric HA, A/chicken/Vietnam/NCVD-016/08 (H5N1) (influenza A virus A/chicken/Vietnam/NCVD-016/2008 (H5N1)); assay: microarray, trimeric HA, transfection supernatant
[15] = target: recombinant soluble homotrimeric HA, A/duck/Yangzhou/02/2005 (H8N4) (influenza A virus A/duck/Yangzhou/02/2005 (H8N4)); assay: microarray, trimeric HA, transfection supernatant
[16] = target: recombinant soluble homotrimeric HA, A/northern shoveler/California/HKWF115/2007 (H6N1) (influenza A virus A/northern shoveler/California/HKWF115/2007 (H6N1)); assay: microarray, trimeric HA, transfection supernatant
[17] = target: recombinant soluble homotrimeric HA of A/California/4/09 (H1N1) (Influenza A virus A/California/04/2009 (H1N1)); assay: HA microarray, BCC supernatant
[18] = target: recombinant soluble homotrimeric HA of A/Egypt/3300-NAMRU3/08 (H5N1) (Influenza A virus A/Egypt/3300-NAMRU3/2008 (H5N1)); assay: HA microarray, BCC supernatant
[19] = target: recombinant soluble homotrimeric HA, A/Anhui/1/05 (H5N1) (influenza A virus A/Anhui/1/2005 (H5N1)); assay: microarray, trimeric HA, transfection supernatant

Row | Binder | Trimeric HA Binding RLU [1] | Trimeric HA Binding RLU [2] | Trimeric HA Binding RLU [3] | Trimeric HA Binding RLU [4] | Trimeric HA Binding RLU [5] | Trimeric HA Binding RLU [6] | Trimeric HA Binding RLU [7] | Trimeric HA Binding RLU [8] | Trimeric HA Binding RLU [9] | Trimeric HA Binding RLU [10] | Trimeric HA Binding RLU [11] | Trimeric HA Binding RLU [12] | Trimeric HA Binding RLU [13] | Trimeric HA Binding RLU [14] | Trimeric HA Binding RLU [15] | Trimeric HA Binding RLU [16] | Trimeric HA Binding RLU [17] | Trimeric HA Binding RLU [18] | Trimeric HA Binding RLU [19]
1 | TCN-532 (5262_H18) (antibody, V domains shown) VH: QVQLQESGPGLVKPSETLSLTCTVSGGSVSSETYYWSWIRQPPGKGLEWIGYIYYIGNTDYRPSLKSRVTISLDTSKNQFSLKLSSVTAADTAVYYCARGAYYDSSGYPAFYIWGQGTMVTVSS VL: QSVLTQPPSVSGAPGQRVTISCTGSSSNIGSDYDVHWYKQLPGTAPKLLIFGNSNRPSGVPDRFSGSKSGTSASLAITGLQAEDEADYYCQSYDSSLSGFHVFGSGTKVTVL | 176 RLU | 327 RLU | 327 RLU | 18000 RLU | 46 RLU | 511 RLU | 119 RLU | – | – | – | – | – | – | – | – | – | – | – | –
2 | TCN-550 (5096_F06) (antibody, V domains shown) VH: QVQLQESGPGLVKPSETLSLTCTVSGASINSHYWSWIRQPPGKGLEWIGYVYYSGSTTYNPSLKSRVTLSVDTSKNQFSLNLSSVTAADTAFYYCARHPYDVLTGSGDWFDPWGQGTLVTVSS VL: SYVLTQAPSVSVAPGQTARITCGGNAIGSKKVHWYQHKAGQAPVLVVYDDTDRPSGIPERFSGSNSWSTATLTINRVEAGDEADYYCQVWDFTIDHVVFGGGTKLTVL | 201 RLU | – | 204 RLU | 26300 RLU | 361 RLU | – | – | 1210 RLU | 2280 RLU | 9100 RLU | 277 RLU | 407 RLU | 955 RLU | 1800 RLU | 4710 RLU | 2300 RLU | – | – | –
3 | TCN-553 (5261_C18) (antibody, V domains shown) VH: QVQVVQSGTEVKKPGSSVKVSCQTSGGRFMSYAITWVRQAPGQGLEWMGGIVPVFGTANYAQKFQGRVTITTDDSTRTAYMELSSLRSEDTAVYYCGFRYGSGYGFDSWGQGTLVTVSS VL: EIVLTQSPGTLSLSPGERATLSCRASQSVSSSYLAWYQKKPGQAPRLLIYGASTRATGIPDRFTGSGSGTDFTLSISRLEPEDFAVYYCQHFGTSVFTFGGGTKVEIK | 25500 RLU | – | 16300 RLU | 20000 RLU | 24200 RLU | 21700 RLU | 2580 RLU | 12600 RLU | – | 24400 RLU | 6560 RLU | 28000 RLU | 36300 RLU | 34700 RLU | 12500 RLU | 32500 RLU | 20300 RLU | 18800 RLU | 8550 RLU
4 | TCN-521 (3280_D18) (antibody, V domains shown) VH: EVQLVQSGGGLVQPGGSLRLACVVSGFTVTSNYITWVRQAPGKGLEWVSVIYSHGRAYYSASVNGRFTISRHTSKNTVYLEMNSLRPEDTAVYYCAGGGLVGGYDEYFFDYWGQGTLATVSS VL: ETVLTQSPGTLSLTPGERATLSCRVGQSVSGSHLAWYQQKPGQAPRLLIYGASSRATGIPDRFGGSVSGTDFTLTISRLEPEDSAVYYCQQYGDSRYTFGQGTKLEIK | 6730 RLU | – | 39600 RLU | – | 32400 RLU | 48000 RLU | – | – | 93 RLU | 31500 RLU | – | – | – | – | – | – | – | 47900 RLU | –
5 | TCN-530 (5248_H10a) (antibody, V domains shown) VH: QVQLVQSGAEVRKPGSSVKVSCKASGGPFMSYAIGWVRQAPGQGLEWMGGINPVFGRPHYAQKFQGRVTIATDDSTKTSYMELSSLTSEDTGMYYCASRYSRSSPGTFESWGQGTLVTVSS VL: EIVMTQFPATLSVSPGERVTLSCRASQSVSNNLAWYQQKPGQPPRLLIYDASTRATGVPAKFSGTGSGTEFTLSISSLQSEDFAVYYCQQYHNWPPSYSFGLGTKLEIK | 47000 RLU | – | 32800 RLU | 36800 RLU | 48300 RLU | 45300 RLU | – | 11900 RLU | – | 39800 RLU | 7150 RLU | – | – | – | – | – | 46600 RLU | 30400 RLU | –
6 | TCN-536 (5095_N01) (antibody, V domains shown) VH: QVQLQQWGAGLLKPSETLSLTCAVYGGSFSVSGYYWSWIRQPPGRGLEWIGEISHGGSTNYNPSLKSRVTISVDTTKNQFSLRLSSVTAADTAVYYCARGTDPDTEVYCRVGNCAAFDYWGQGSLVTVSS VL: EIILAQSPGTLSLSPGERATLSCRASQFVSTRSLAWYQQRPGQAPRLLIYGASSRATGIPDRFSGSGSGTDFTLTISRLEPEDFAVYYCQHYGYSPRYAFGQGSKVEIK | 121 RLU | – | – | 35000 RLU | 287 RLU | – | 79 RLU | – | – | – | – | – | – | – | – | – | 151 RLU | – | –
7 | TCN-563 (5237_B21) (antibody, V domains shown) VH: QVQLAQSGAEVKRPGSSVKVSCTASGGIFRKNAISWVRQAPGQGLEWMGGIIAVFNTANYAQKFQGRVKITADESGNTAYMELSSLRSDDTAVYYCASHPKYFYGSGSYPDFWGQGTLVTVSS VL: QSALTQPRSVSGSPGQSVTISCTGSSSDVGASNSVSWYQQHPGKAPKLVIYDVTERPSGVPHRFSGSKSGNTASLTVSGLQPEDEADYFCCAYGGKYLVVFGGGTKVTVL | 6610 RLU | 7520 RLU | 30000 RLU | 40800 RLU | 41000 RLU | 27300 RLU | 4500 RLU | 9580 RLU | – | 39500 RLU | 4840 RLU | 46700 RLU | – | – | – | – | 45200 RLU | 27500 RLU | –
8 | TCN-537 (3194_D21) (antibody, V domains shown) VH: QVQLQQWGSGLLKPSETLSLTCAVYGGSFRDDYWTWIRQPPGKGLEWIGEINHSGRTNYNPSLKSRVTISVDTSLKQFSLKVISVTAADTAVYYCARGTSHVSRYFDWLPPTNWFDPWGQGTQVTVSS VL: DIVLTQSPGTLSLSPGERATLSCRASQSVSSSYLAWYQQKPGQAPRLVMYGAATRATGIPDRFSGSGSGPDFTLTISRLEPEDFAMYYCQQYGNSPITFGQGTRLEIK | 44700 RLU | – | – | 549 RLU | 8620 RLU | 5210 RLU | 19 RLU | – | – | 14900 RLU | – | 7830 RLU | 10700 RLU | 4480 RLU | 25500 RLU | – | 21900 RLU | 38200 RLU | –
9 | TCN-552 (5249_I23) (antibody, V domains shown) VH: QVQVVQSGAEVKKPGSSVRVSCQASGGTFMNYAIIWVRRAPGQGLEWMGGIIPVFPTPNYAQMFQGRVTISTDESRSTSFLELTNLRYEDTAVYYCARRIYHGGNSGFDFWGQGTLVTVSS VL: EIVLTQSPATLSLSPGERATLSCRASQSVGNYLAWYQQKPGQAPRLLIYDSSNRAPGIPARFSGSGSGTDFTLTISSLAPEDFAVYYCQQRSKWPPMYSFGHGTKLEIK | 23800 RLU | – | 39300 RLU | 14800 RLU | 46200 RLU | 38400 RLU | – | 4160 RLU | – | 43600 RLU | 2730 RLU | 13100 RLU | 36300 RLU | 34500 RLU | 15900 RLU | 43900 RLU | 35300 RLU | 40000 RLU | –
